# Experimental data published in patent US20150259419A1 (PROTHENA BIOSCIENCES, published 2015).
# Substitutions are numbered along the chain they refer to.
# T1: human MCAM, full length, expressed on transfected cells (human, UniProt P43121 24-646)
# T1 construct: CHO cells transfected with the full length human MCAM gene; also called hMCAM; CD146
# T1 chain: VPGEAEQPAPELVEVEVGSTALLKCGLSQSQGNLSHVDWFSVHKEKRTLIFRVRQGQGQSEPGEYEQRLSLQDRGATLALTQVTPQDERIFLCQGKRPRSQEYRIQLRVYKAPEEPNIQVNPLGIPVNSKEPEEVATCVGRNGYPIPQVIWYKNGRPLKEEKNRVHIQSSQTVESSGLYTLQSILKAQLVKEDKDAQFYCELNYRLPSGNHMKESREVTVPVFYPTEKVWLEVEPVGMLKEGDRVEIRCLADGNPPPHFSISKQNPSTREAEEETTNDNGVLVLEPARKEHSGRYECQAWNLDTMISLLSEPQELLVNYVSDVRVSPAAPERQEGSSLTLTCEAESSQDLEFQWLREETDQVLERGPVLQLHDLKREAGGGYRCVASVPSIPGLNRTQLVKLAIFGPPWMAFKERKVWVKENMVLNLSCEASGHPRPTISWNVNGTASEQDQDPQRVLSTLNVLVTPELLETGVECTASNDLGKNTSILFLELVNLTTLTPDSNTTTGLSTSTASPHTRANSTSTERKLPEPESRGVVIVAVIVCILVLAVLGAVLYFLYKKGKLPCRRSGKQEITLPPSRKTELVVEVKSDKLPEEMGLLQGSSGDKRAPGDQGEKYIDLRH
# T2: recombinant hMCAM-His (human, UniProt P43121 24-559)
# T2 construct: not shown: His tag
# T2 chain: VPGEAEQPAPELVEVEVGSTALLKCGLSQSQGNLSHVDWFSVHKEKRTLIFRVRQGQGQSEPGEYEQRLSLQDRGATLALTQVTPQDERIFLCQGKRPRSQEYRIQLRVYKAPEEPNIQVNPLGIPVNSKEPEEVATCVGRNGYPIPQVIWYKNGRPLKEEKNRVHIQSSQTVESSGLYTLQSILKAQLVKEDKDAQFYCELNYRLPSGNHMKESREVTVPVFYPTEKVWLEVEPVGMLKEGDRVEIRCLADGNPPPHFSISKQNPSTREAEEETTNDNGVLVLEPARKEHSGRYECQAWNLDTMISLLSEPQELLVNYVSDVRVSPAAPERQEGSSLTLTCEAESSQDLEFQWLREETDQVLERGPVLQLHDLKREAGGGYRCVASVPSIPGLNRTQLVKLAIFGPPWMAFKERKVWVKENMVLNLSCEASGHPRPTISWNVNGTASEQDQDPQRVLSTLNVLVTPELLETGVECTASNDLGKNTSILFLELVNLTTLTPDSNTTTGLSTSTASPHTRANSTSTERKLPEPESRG
# T3: human MCAM domain 1 (MCAMhFc domain construct) (human, UniProt P43121 19-129)
# T3 construct: also called amino acids 19-129; not shown: human Fc portion (captured on anti-human IgG Fc biosensors)
# T3 sequence: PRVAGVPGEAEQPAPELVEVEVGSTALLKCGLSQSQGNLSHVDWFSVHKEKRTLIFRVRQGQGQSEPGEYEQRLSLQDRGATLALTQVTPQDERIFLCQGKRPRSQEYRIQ
# B1: rat anti-human MCAM monoclonal antibody clone 2107.4.10 (antibody, V domains shown)
# VH: QVQLKESGPGLVQSSQTLSLTCTVSGFSLTSNGVSWVRQPPGKGLEWIAAISSGGSTYYNSAFKSRLSISRNTSKSQVLLKMNSLQTEDTGMYFCARHRPFYFDYWGQGVMVTVSS
# VL: DIQVTQSPSLLSASVGDRVTLNCKGSQNIYKSLAWFRLKRGEAPKLLIYDANSLQTGIPSRFSGSGSGTDFTLTITSLQPEDVATYFCQQYYSGYTFGAGTKLELK
# B2: h2120_VH1 + h2120_VL3 (antibody, V domains shown)
# VH: QVTLKESGPVLVKPTETLTLTCTVSGFSLTSNGVSWVRQPPGKALEWIAAISSGGTTYYNSAFKSRLTISRDTSKSQVVLTMTNMDPVDTATYYCARRYGYGWYFDFWGQGTLVTVSS
# VL: DIQMTQSPSSLSASVGDRVTINCKASQNIYNSLAWYQQKPGKAPKVLIFNANSLQTGIPSRFSGSGSGTDFTLTISSLQPEDFATYYCQQFYSGYTFGQGTKLEIK
# notes: Humanized V regions cloned into expression vectors containing human CK (VL) or human IgG1 (VH); expressed in 293F cells; also called Standard VH + conservative VL; VH1VL3
# B3: h2120_VH3 + h2120_VL3 (antibody, human IgG1, V domains shown)
# VH: B2 VH with N32S
# VL: B2 VL
# notes: also called N-S deamidate VH + conservative VL
# B4: h2120_VH4 + h2120_VL3 (antibody, human IgG1, V domains shown)
# VH: B2 VH with N32Q
# VL: B2 VL
# notes: also called N-Q deamidate VH + conservative VL
# B5: h2120_VH2 + h2120_VL3 (antibody, human IgG1, V domains shown)
# VH: B2 VH with T68S
# VL: B2 VL
# notes: also called Conservative VH + conservative VL
# B6: h2120_VH1 + h2120_VL1 (antibody, human IgG1, V domains shown)
# VH: B2 VH
# VL: B2 VL with N22T
# notes: also called Standard VH + standard VL
# B7: h2120_VH1 + h2120_VL2 (antibody, human IgG1, V domains shown)
# VH: B2 VH
# VL: B2 VL with N22T, I58V
# notes: also called Standard VH + aggressive VL
# B8: h2120_VH5 + h2120_VL3 (antibody, V domains shown)
# VH: B2 VH with G33A
# VL: B2 VL
# notes: also called h2120VH5VL3; VH5VL3
# B9: rat anti-human MCAM monoclonal antibody clone 2120.4.19 (antibody, V domains shown)
# VH: QVQLKESGPGLVQPSQTLSLTCTVSGFSLTSNGVSWVRQPPGKGLEWIAAISSGGTTYYNSAFKSRLSISRNTSKSQVLLKMNSLQTEDTAMYFCARRYGYGWYFDFWGPGTMVTVSS
# VL: B2 VL with Q3R, S10L, I21L, P40L, K42E, A43G, F49P, Y87F, Q99A, I105L
# notes: also called m2120
# Target: T1, human MCAM, full length, expressed on …
# Assay: blocking of laminin 411 (20 ug/ml) binding to CHO cells expressing human MCAM, flow cytometry
# Protocol: The 87 independent mouse fusion clones and 26 independent rat fusion clones described in Example 1 above as being capable of (i) binding to human MCAM, and (ii) blocking the interaction between human MCAM and the α-4 chain of laminin were further characterized as follows. First, IC50 quantitation for the ability of the monoclonal antibody to block the binding of human MCAM to the α-4 chain of laminin was determined as follows. CHO cells expressing human MCAM were incubated with an anti-human MCAM antibody (at various concentrations) for 30 minutes at 4 degrees Celsius. […] Unbound laminin was then washed away, and the laminin bound to the surface of the cells was detected with fluorescently labeled anti-laminin antibodies. After washing, the amount of laminin bound to the surface was detected by flow cytometry, and IC50s were calculated based on the mean fluorescent intensity.
# Amino acid and nucleic acid sequences of the heavy and light chains of these antibodies, and their hypervariable regions, are provided in SEQ ID NOs:29-92. […] As such, each of these specific monoclonal antibodies was very capable of binding to human MCAM and inhibiting the interaction of cell-expressed human MCAM with its α-4 laminin binding ligand.
row,Binder,IC50 [µg/mL]
1,B1,0.29

# Target: T2, recombinant hMCAM-His
# Assay: competitive ELISA on hMCAM-His against biotinylated rodent or chimeric 2120; relative to rodent 2120
# Protocol: ELISA plates were coated with recombinant hMCAM-His, and blocked with casein buffer to prevent non-specific binding. Biotinylated rodent or chimeric antibody was added at a subsaturating concentration, in the presence or absence of 3× increasing concentrations of unlabeled competitor (humanized antibody, rodent, or chimeric). After washing to remove unbound antibody, streptavidin HRP was added to allow detection of the biotinylated antibody. The ELISA was developed with TMB substrate and the OD450 was measured. The IC50 of the unlabeled competitor was determined using the GraphPad Prism5 software.
Binder,Fold over rodent (competitive ELISA IC50) [fold],"Fold over rodent (competitive ELISA IC50, Expt. #1) [fold]","Fold over rodent (competitive ELISA IC50, Expt. #2) [fold]"
B2,1.8,2.23,2.42
B3,,3.47,
B4,5,,
B5,,1.93,2.62
B6,3.1,,
B7,3.1,,
B8,2.4,,

# Target: T2, recombinant hMCAM-His
# Assay: ForteBio Octet Red, antibody on anti-human Fc sensors, hMCAMHis analyte, 1:1 fit; relative to rodent 2120
# Protocol: The affinities were measured using the ForteBio Octet Red. Anti-human Fc sensors were used to capture the humanized antibodies, and several concentrations of hMCAMHis analyte were used to determine the affinity using a 1:1 fitting model.
Binder,Fold over rodent (Forte affinity) [fold],"Fold over rodent (Forte affinity, Expt. #1) [fold]","Fold over rodent (Forte affinity, Expt. #2) [fold]","Fold over rodent (Forte affinity, second column) [fold]"
B2,5.9,5.64,6.21,5.8
B3,,16.1,,
B4,17.4,,,
B5,,6.57,6.43,
B6,8.8,,,
B7,10.8,,,
B8,1.1,,,1.2

# Target: T3, human MCAM domain 1 (MCAMhFc domain …)
# Assay: ForteBio Octet Red, MCAMhFc domains on anti-human IgG Fc biosensors
# From the text: The following protocol was used: ForteBio anti-human IgG Fc biosensors were used to immobilize various MCAMhFc domains including full length MCAMhFc protein on to biosensor surface. […] After loading these samples into a black 96 well plate, the Octet Red was programmed as follows: 60 seconds for baseline #1; 180 seconds for loading various domains; 60 seconds for baseline #2; 180 seconds for association of antibody to domain; and 240 seconds for dissociation of antibody from domain.
# 1. MCAMhFc final concentration@5 ug/ml [0374] […] 3. ForteBio anti-human IgG Fc Capture (AHC) biosensors for kinetics experiments, cat #18-5060 [0376] 4. Block 96 well plate from Greiner Bio-one, cat #655209 [0377] 5. ForteBio Octet Red machine [0378] 6. Fresh tissue culture medium, DMEM with 20% FCS, was used as buffer for dilution
row,Binder,binding result
1,B9,no binding (tested: 5 ug/ml)
2,B1,no binding (tested: 5 ug/ml)

# Target: T1, human MCAM, full length, expressed on …
# Assay: laminin/FACS assay: blocking of laminin 411 binding to hMCAM expressing CHO cells; relative to rodent 2120
# Protocol: Following incubation for 30-45 minutes, the cells were washed and anti-laminin conjugated to AF650 (NovusBio) was added to detect the bound laminin. The cells were run on a flow cytometer to measure the laminin binding signal.
Binder,"Fold over rodent (Blocking, Expt#1) [fold]","Fold over rodent (Blocking, Expt#2) [fold]"
B2,1.7,2.8
B4,3.8,5.6
B6,2,3.5
B7,4.6,12.6
B8,1.2,1.5
